The target in assay [1] is HLA-A*02:01. In words: IEDB peptide-MHC binding, purified MHC/competitive/fluorescence; filed as Kd, often an IC50 or EC50 that approximates it; ≥ and ≤ were set here for values at or beyond the usual limits of such assays. The following applies: source organism: Entamoeba histolytica HM-1:IMSS.
Assay [2] addresses HLA-A*02:03. The description is as above. To be noted: source organism: Entamoeba histolytica HM-1:IMSS.
The target in assay [3] is HLA-A*02:11. The assay is described as above. The following applies: source organism: Entamoeba histolytica HM-1:IMSS.
The target of assay [4] is HLA-A*02:12. The assay is described as above. To be noted: source organism: Entamoeba histolytica HM-1:IMSS.
The target of assay [5] is HLA-A*02:16. The assay is described as above. To be noted: source organism: Entamoeba histolytica HM-1:IMSS.
The target of assay [6] is HLA-A*02:19. The description is as above. The following applies: source organism: Entamoeba histolytica HM-1:IMSS.
The target of assay [7] is HLA-A*03:01. The description is as above. The following applies: source organism: Entamoeba histolytica HM-1:IMSS.
The target of another assay is HLA-A*23:01. Described as above. The following applies: source organism: Entamoeba histolytica HM-1:IMSS.
A further assay addresses HLA-A*24:03. Described as above. The following applies: source organism: Entamoeba histolytica HM-1:IMSS.
For the next assay, the target named is HLA-A*25:01. Described as above. To be noted: source organism: Entamoeba histolytica HM-1:IMSS.
The target in another assay is HLA-A*26:01. Described as above. To be noted: source organism: Entamoeba histolytica HM-1:IMSS.
Another assay has as its target HLA-A*29:02. The description is as above. The following applies: source organism: Entamoeba histolytica HM-1:IMSS.
The next assay deals with HLA-A*68:02. The assay is described as above. The following applies: source organism: Entamoeba histolytica HM-1:IMSS.
In assay [8] the target is HLA-A*69:01. Described as above. The following applies: source organism: Entamoeba histolytica HM-1:IMSS.
The target in a further assay is HLA-A*80:01. The description is as above. To be noted: source organism: Entamoeba histolytica HM-1:IMSS.
Assay [9] has as its target HLA-B*15:01. Described as above. The following applies: source organism: Entamoeba histolytica HM-1:IMSS.
Another assay concerns the target HLA-B*15:17. The description is as above. To be noted: source organism: Entamoeba histolytica HM-1:IMSS.
The target of a further assay is HLA-B*18:01. Described as above. The following applies: source organism: Entamoeba histolytica HM-1:IMSS.
Another assay concerns the target HLA-B*27:03. Described as above. The following applies: source organism: Entamoeba histolytica HM-1:IMSS.
For another assay, the target named is HLA-B*39:01. Described as above. The following applies: source organism: Entamoeba histolytica HM-1:IMSS.
The next assay concerns the target HLA-B*46:01. Described as above. The following applies: source organism: Entamoeba histolytica HM-1:IMSS.
Another assay concerns the target HLA-B*51:01. Described as above. The following applies: source organism: Entamoeba histolytica HM-1:IMSS.
Another assay deals with HLA-B*57:01. The assay is described as above. The following applies: source organism: Entamoeba histolytica HM-1:IMSS.
For the next assay, the target named is HLA-A*01:01. Nature of the assay: IEDB peptide-MHC binding, purified MHC/direct/fluorescence; filed as Kd, often an IC50 or EC50 that approximates it; ≥ and ≤ were set here for values at or beyond the usual limits of such assays. The following applies: source organism: Yersinia pestis.
Assay [10] addresses HLA-A*02:01. The assay is described as above. The following applies: source organism: Yersinia pestis.
Assay [11] addresses HLA-A*02:03. The description is as above. The following applies: source organism: Yersinia pestis CA88-4125.
In a further assay the target is HLA-A*02:06. The assay is described as above. The following applies: source organism: Yersinia pestis CA88-4125.
In assay [12] the target is HLA-A*02:11. The assay is described as above. The following applies: source organism: Yersinia pestis CA88-4125.
For assay [13], the target named is HLA-A*02:12. Described as above. To be noted: source organism: Yersinia pestis CA88-4125.
The target of assay [14] is HLA-A*02:16. Described as above. The following applies: source organism: Yersinia pestis CA88-4125.
Assay [15] has as its target HLA-A*02:19. The description is as above. The following applies: source organism: Yersinia pestis CA88-4125.
The target in assay [16] is HLA-A*03:01. The description is as above. To be noted: source organism: Yersinia pestis.
The target of another assay is HLA-A*11:01. The description is as above. The following applies: source organism: Yersinia pestis.
Assay [17] concerns the target HLA-A*31:01. The assay is described as above. The following applies: source organism: Yersinia pestis.
For assay [18], the target named is HLA-A*69:01. Described as above. The following applies: source organism: Yersinia pestis.
A further assay has as its target HLA-B*07:02. Described as above. To be noted: source organism: Yersinia pestis.
A further assay addresses HLA-B*08:01. Described as above. To be noted: source organism: Yersinia pestis CA88-4125.
For the next assay, the target named is HLA-B*08:02. Described as above. The following applies: source organism: Yersinia pestis CA88-4125.
In assay [19] the target is HLA-B*15:01. The description is as above. The following applies: source organism: Yersinia pestis.
The next assay has as its target HLA-B*27:05. Described as above. To be noted: source organism: Yersinia pestis.
Another assay has as its target HLA-B*40:01. The description is as above. The following applies: source organism: Yersinia pestis.
The next assay concerns the target HLA-B*44:02. The assay is described as above. To be noted: source organism: Yersinia pestis.
The target in the next assay is HLA-B*58:01. The description is as above. The following applies: source organism: Yersinia pestis.
For a further assay, the target named is HLA-A*02:50. In words: IEDB peptide-MHC binding, purified MHC/competitive/fluorescence; filed as Kd, often an IC50 or EC50 that approximates it; ≥ and ≤ were set here for values at or beyond the usual limits of such assays. The following applies: source organism: Yersinia pestis Nepal516.
For assay [20], the target named is HLA-A*31:01. In words: IEDB peptide-MHC binding, purified MHC/competitive/fluorescence; ≥ and ≤ were set here for values at or beyond the usual limits of such assays. The following applies: source organism: Homo sapiens.

Take LICYQIEYI: the Kd in the assay with HLA-A*02:01 [1] was ≥ 20 µM; with HLA-A*02:03 [2] it was ≥ 20 µM; in the assay with HLA-A*02:11 [3] it was 0.0008 µM; with HLA-A*02:12 [4], ≥ 20 µM; with HLA-A*02:16 [5], ≥ 20 µM; with HLA-A*02:19 [6] it was ≥ 20 µM. The Kd in the assay with HLA-A*03:01 [7], in the assay with HLA-A*23:01, in the assay with HLA-A*24:03, with HLA-A*25:01, in the assay with HLA-A*26:01 and in the assay with HLA-A*29:02 was ≥ 20 µM throughout. Also, the equilibrium dissociation constant (Kd) in the assay with HLA-A*68:02, with HLA-A*69:01 [8], with HLA-A*80:01, with HLA-B*15:01 [9], with HLA-B*15:17 and with HLA-B*18:01 was ≥ 20 µM in each case. The Kd with HLA-B*27:03, with HLA-B*39:01, with HLA-B*46:01, with HLA-B*51:01 and in the assay with HLA-B*57:01 was ≥ 20 µM in each case.
Regarding FLPPQIPVI, the Kd was ≥ 20 µM in the assay with HLA-A*01:01; 0.0214 µM with HLA-A*02:01 [10]; ≤ 0.001 µM with HLA-A*02:03 [11]; ≤ 0.001 µM with HLA-A*02:06; ≤ 0.001 µM with HLA-A*02:11 [12]; ≤ 0.001 µM with HLA-A*02:12 [13]. Also, the Kd with HLA-A*02:16 [14] was ≤ 0.001 µM; with HLA-A*02:19 [15], 0.018 µM; with HLA-A*03:01 [16] it was ≥ 20 µM; in the assay with HLA-A*11:01, ≥ 20 µM; in the assay with HLA-A*31:01 [17] it was ≥ 20 µM; with HLA-A*69:01 [18] it was 4.7 µM. The Kd with HLA-B*07:02 is ≥ 20 µM; with HLA-B*08:01, ≥ 20 µM; with HLA-B*08:02, ≥ 20 µM; in the assay with HLA-B*15:01 [19], 0.477 µM; with HLA-B*27:05, ≥ 20 µM; with HLA-B*40:01, ≥ 20 µM. Further, the Kd with HLA-B*44:02 was ≥ 20 µM; with HLA-B*58:01, ≥ 20 µM; with HLA-A*02:50, ≤ 0.0001 µM.
The sequence TMGTGTFGR displayed an IC50 in the assay with HLA-A*31:01 [20] of 0.388 µM.
